In patent US20150259419A1 (PROTHENA BIOSCIENCES, published 2015):

T1: recombinant hMCAM-His (human, UniProt P43121 24-559)
T1 construct: not shown: His tag
T1 chain: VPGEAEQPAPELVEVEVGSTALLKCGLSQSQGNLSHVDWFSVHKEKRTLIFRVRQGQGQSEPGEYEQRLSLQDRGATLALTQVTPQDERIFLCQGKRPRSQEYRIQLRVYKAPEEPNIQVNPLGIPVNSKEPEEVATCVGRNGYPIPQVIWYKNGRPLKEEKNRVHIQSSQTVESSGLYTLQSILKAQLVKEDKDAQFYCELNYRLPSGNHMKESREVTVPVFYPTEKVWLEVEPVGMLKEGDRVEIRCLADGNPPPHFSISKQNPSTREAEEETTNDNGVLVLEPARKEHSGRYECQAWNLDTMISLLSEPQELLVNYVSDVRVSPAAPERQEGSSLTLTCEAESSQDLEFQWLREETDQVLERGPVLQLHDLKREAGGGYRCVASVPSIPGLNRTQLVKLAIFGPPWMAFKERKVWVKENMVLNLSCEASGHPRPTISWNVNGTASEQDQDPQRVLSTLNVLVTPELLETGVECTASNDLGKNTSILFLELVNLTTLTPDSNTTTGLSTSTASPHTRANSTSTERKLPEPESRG

T2: human MCAM, full length, expressed on transfected cells (human, UniProt P43121 24-646)
T2 construct: CHO cells transfected with the full length human MCAM gene; also called hMCAM; CD146
T2 chain: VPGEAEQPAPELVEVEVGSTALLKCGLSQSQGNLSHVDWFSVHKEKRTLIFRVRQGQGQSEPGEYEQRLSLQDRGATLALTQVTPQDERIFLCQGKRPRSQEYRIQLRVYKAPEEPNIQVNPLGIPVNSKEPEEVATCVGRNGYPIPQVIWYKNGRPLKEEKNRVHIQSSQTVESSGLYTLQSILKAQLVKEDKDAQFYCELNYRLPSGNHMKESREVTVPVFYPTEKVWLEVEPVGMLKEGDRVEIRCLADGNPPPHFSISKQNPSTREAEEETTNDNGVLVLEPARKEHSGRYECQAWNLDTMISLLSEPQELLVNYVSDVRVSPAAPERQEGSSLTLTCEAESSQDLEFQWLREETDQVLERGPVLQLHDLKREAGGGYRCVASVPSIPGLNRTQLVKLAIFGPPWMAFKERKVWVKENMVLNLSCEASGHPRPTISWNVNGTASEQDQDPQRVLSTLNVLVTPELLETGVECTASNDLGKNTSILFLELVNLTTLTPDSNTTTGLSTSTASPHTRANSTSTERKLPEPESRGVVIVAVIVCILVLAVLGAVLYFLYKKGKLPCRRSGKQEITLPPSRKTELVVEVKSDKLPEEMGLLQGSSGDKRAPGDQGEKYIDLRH

T3: human MCAM domain 1 (MCAMhFc domain construct) (human, UniProt P43121 19-129)
T3 construct: also called amino acids 19-129; not shown: human Fc portion (captured on anti-human IgG Fc biosensors)
T3 sequence: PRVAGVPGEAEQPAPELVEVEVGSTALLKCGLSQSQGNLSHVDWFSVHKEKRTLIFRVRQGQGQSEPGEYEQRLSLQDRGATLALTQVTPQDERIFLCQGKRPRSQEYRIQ


Columns and labels:
recombinant hMCAM-His [1] = target: T1, recombinant hMCAM-His; assay: competitive ELISA on hMCAM-His against biotinylated rodent or chimeric 2120; relative to rodent 2120
Procedure: ELISA plates were coated with recombinant hMCAM-His, and blocked with casein buffer to prevent non-specific binding. Biotinylated rodent or chimeric antibody was added at a subsaturating concentration, in the presence or absence of 3× increasing concentrations of unlabeled competitor (humanized antibody, rodent, or chimeric). After washing to remove unbound antibody, streptavidin HRP was added to allow detection of the biotinylated antibody. The ELISA was developed with TMB substrate and the OD450 was measured. The IC50 of the unlabeled competitor was determined using the GraphPad Prism5 software.

recombinant hMCAM-His [2] = target: T1, recombinant hMCAM-His; assay: ForteBio Octet Red, antibody on anti-human Fc sensors, hMCAMHis analyte, 1:1 fit; relative to rodent 2120
Procedure: The affinities were measured using the ForteBio Octet Red. Anti-human Fc sensors were used to capture the humanized antibodies, and several concentrations of hMCAMHis analyte were used to determine the affinity using a 1:1 fitting model.

[3] = target: T2, human MCAM, full length, expressed on …; assay: laminin/FACS assay: blocking of laminin 411 binding to hMCAM expressing CHO cells; relative to rodent 2120
Procedure: Following incubation for 30-45 minutes, the cells were washed and anti-laminin conjugated to AF650 (NovusBio) was added to detect the bound laminin. The cells were run on a flow cytometer to measure the laminin binding signal.

[4] = target: T3, human MCAM domain 1 (MCAMhFc domain …); assay: ForteBio Octet Red, MCAMhFc domains on anti-human IgG Fc biosensors
Text: The following protocol was used: ForteBio anti-human IgG Fc biosensors were used to immobilize various MCAMhFc domains including full length MCAMhFc protein on to biosensor surface. […] After loading these samples into a black 96 well plate, the Octet Red was programmed as follows: 60 seconds for baseline #1; 180 seconds for loading various domains; 60 seconds for baseline #2; 180 seconds for association of antibody to domain; and 240 seconds for dissociation of antibody from domain.
1. MCAMhFc final concentration@5 ug/ml [0374] […] 3. ForteBio anti-human IgG Fc Capture (AHC) biosensors for kinetics experiments, cat #18-5060 [0376] 4. Block 96 well plate from Greiner Bio-one, cat #655209 [0377] 5. ForteBio Octet Red machine [0378] 6. Fresh tissue culture medium, DMEM with 20% FCS, was used as buffer for dilution

[5] = target: T2, human MCAM, full length, expressed on …; assay: blocking of laminin 411 (20 ug/ml) binding to CHO cells expressing human MCAM, flow cytometry
Procedure: The 87 independent mouse fusion clones and 26 independent rat fusion clones described in Example 1 above as being capable of (i) binding to human MCAM, and (ii) blocking the interaction between human MCAM and the α-4 chain of laminin were further characterized as follows. First, IC50 quantitation for the ability of the monoclonal antibody to block the binding of human MCAM to the α-4 chain of laminin was determined as follows. CHO cells expressing human MCAM were incubated with an anti-human MCAM antibody (at various concentrations) for 30 minutes at 4 degrees Celsius. […] Unbound laminin was then washed away, and the laminin bound to the surface of the cells was detected with fluorescently labeled anti-laminin antibodies. After washing, the amount of laminin bound to the surface was detected by flow cytometry, and IC50s were calculated based on the mean fluorescent intensity.
Amino acid and nucleic acid sequences of the heavy and light chains of these antibodies, and their hypervariable regions, are provided in SEQ ID NOs:29-92. […] As such, each of these specific monoclonal antibodies was very capable of binding to human MCAM and inhibiting the interaction of cell-expressed human MCAM with its α-4 laminin binding ligand.

Row | Binder | Fold over rodent (competitive ELISA IC50) (recombinant hMCAM-His [1]) | Fold over rodent (competitive ELISA IC50, Expt. #1) (recombinant hMCAM-His [1]) | Fold over rodent (competitive ELISA IC50, Expt. #2) (recombinant hMCAM-His [1]) | Fold over rodent (Forte affinity) (recombinant hMCAM-His [2]) | Fold over rodent (Forte affinity, Expt. #1) (recombinant hMCAM-His [2]) | Fold over rodent (Forte affinity, Expt. #2) (recombinant hMCAM-His [2]) | Fold over rodent (Forte affinity, second column) (recombinant hMCAM-His [2]) | Fold over rodent (Blocking, Expt#1) [3] | Fold over rodent (Blocking, Expt#2) [3] | binding result [4] | IC50 [5]
1 | h2120_VH1 + h2120_VL3 (antibody, V domains shown, Humanized V regions cloned into expression vectors containing human CK (VL) or human IgG1 (VH); expressed in 293F cells; also called Standard VH + conservative VL; VH1VL3) VH: QVTLKESGPVLVKPTETLTLTCTVSGFSLTSNGVSWVRQPPGKALEWIAAISSGGTTYYNSAFKSRLTISRDTSKSQVVLTMTNMDPVDTATYYCARRYGYGWYFDFWGQGTLVTVSS VL: DIQMTQSPSSLSASVGDRVTINCKASQNIYNSLAWYQQKPGKAPKVLIFNANSLQTGIPSRFSGSGSGTDFTLTISSLQPEDFATYYCQQFYSGYTFGQGTKLEIK | 1.8 fold | 2.23 fold | 2.42 fold | 5.9 fold | 5.64 fold | 6.21 fold | 5.8 fold | 1.7 fold | 2.8 fold | – | –
2 | rat anti-human MCAM monoclonal antibody clone 2120.4.19 (antibody, V domains shown, also called m2120) VH: QVQLKESGPGLVQPSQTLSLTCTVSGFSLTSNGVSWVRQPPGKGLEWIAAISSGGTTYYNSAFKSRLSISRNTSKSQVLLKMNSLQTEDTAMYFCARRYGYGWYFDFWGPGTMVTVSS VL: DIRMTQSPSLLSASVGDRVTLNCKASQNIYNSLAWYQQKLGEGPKVLIPNANSLQTGIPSRFSGSGSGTDFTLTISSLQPEDFATYFCQQFYSGYTFGAGTKLELK | – | – | – | – | – | – | – | – | – | no binding (tested: 5 ug/ml) | –
3 | h2120_VH3 + h2120_VL3 (antibody, human IgG1, V domains shown, also called N-S deamidate VH + conservative VL) VH: QVTLKESGPVLVKPTETLTLTCTVSGFSLTSSGVSWVRQPPGKALEWIAAISSGGTTYYNSAFKSRLTISRDTSKSQVVLTMTNMDPVDTATYYCARRYGYGWYFDFWGQGTLVTVSS VL: DIQMTQSPSSLSASVGDRVTINCKASQNIYNSLAWYQQKPGKAPKVLIFNANSLQTGIPSRFSGSGSGTDFTLTISSLQPEDFATYYCQQFYSGYTFGQGTKLEIK | – | 3.47 fold | – | – | 16.1 fold | – | – | – | – | – | –
4 | h2120_VH2 + h2120_VL3 (antibody, human IgG1, V domains shown, also called Conservative VH + conservative VL) VH: QVTLKESGPVLVKPTETLTLTCTVSGFSLTSNGVSWVRQPPGKALEWIAAISSGGTTYYNSAFKSRLSISRDTSKSQVVLTMTNMDPVDTATYYCARRYGYGWYFDFWGQGTLVTVSS VL: DIQMTQSPSSLSASVGDRVTINCKASQNIYNSLAWYQQKPGKAPKVLIFNANSLQTGIPSRFSGSGSGTDFTLTISSLQPEDFATYYCQQFYSGYTFGQGTKLEIK | – | 1.93 fold | 2.62 fold | – | 6.57 fold | 6.43 fold | – | – | – | – | –
5 | h2120_VH1 + h2120_VL1 (antibody, human IgG1, V domains shown, also called Standard VH + standard VL) VH: QVTLKESGPVLVKPTETLTLTCTVSGFSLTSNGVSWVRQPPGKALEWIAAISSGGTTYYNSAFKSRLTISRDTSKSQVVLTMTNMDPVDTATYYCARRYGYGWYFDFWGQGTLVTVSS VL: DIQMTQSPSSLSASVGDRVTITCKASQNIYNSLAWYQQKPGKAPKVLIFNANSLQTGIPSRFSGSGSGTDFTLTISSLQPEDFATYYCQQFYSGYTFGQGTKLEIK | 3.1 fold | – | – | 8.8 fold | – | – | – | 2 fold | 3.5 fold | – | –
6 | h2120_VH1 + h2120_VL2 (antibody, human IgG1, V domains shown, also called Standard VH + aggressive VL) VH: QVTLKESGPVLVKPTETLTLTCTVSGFSLTSNGVSWVRQPPGKALEWIAAISSGGTTYYNSAFKSRLTISRDTSKSQVVLTMTNMDPVDTATYYCARRYGYGWYFDFWGQGTLVTVSS VL: DIQMTQSPSSLSASVGDRVTITCKASQNIYNSLAWYQQKPGKAPKVLIFNANSLQTGVPSRFSGSGSGTDFTLTISSLQPEDFATYYCQQFYSGYTFGQGTKLEIK | 3.1 fold | – | – | 10.8 fold | – | – | – | 4.6 fold | 12.6 fold | – | –
7 | h2120_VH5 + h2120_VL3 (antibody, V domains shown, also called h2120VH5VL3; VH5VL3) VH: QVTLKESGPVLVKPTETLTLTCTVSGFSLTSNAVSWVRQPPGKALEWIAAISSGGTTYYNSAFKSRLTISRDTSKSQVVLTMTNMDPVDTATYYCARRYGYGWYFDFWGQGTLVTVSS VL: DIQMTQSPSSLSASVGDRVTINCKASQNIYNSLAWYQQKPGKAPKVLIFNANSLQTGIPSRFSGSGSGTDFTLTISSLQPEDFATYYCQQFYSGYTFGQGTKLEIK | 2.4 fold | – | – | 1.1 fold | – | – | 1.2 fold | 1.2 fold | 1.5 fold | – | –
8 | h2120_VH4 + h2120_VL3 (antibody, human IgG1, V domains shown, also called N-Q deamidate VH + conservative VL) VH: QVTLKESGPVLVKPTETLTLTCTVSGFSLTSQGVSWVRQPPGKALEWIAAISSGGTTYYNSAFKSRLTISRDTSKSQVVLTMTNMDPVDTATYYCARRYGYGWYFDFWGQGTLVTVSS VL: DIQMTQSPSSLSASVGDRVTINCKASQNIYNSLAWYQQKPGKAPKVLIFNANSLQTGIPSRFSGSGSGTDFTLTISSLQPEDFATYYCQQFYSGYTFGQGTKLEIK | 5 fold | – | – | 17.4 fold | – | – | – | 3.8 fold | 5.6 fold | – | –
9 | rat anti-human MCAM monoclonal antibody clone 2107.4.10 (antibody, V domains shown) VH: QVQLKESGPGLVQSSQTLSLTCTVSGFSLTSNGVSWVRQPPGKGLEWIAAISSGGSTYYNSAFKSRLSISRNTSKSQVLLKMNSLQTEDTGMYFCARHRPFYFDYWGQGVMVTVSS VL: DIQVTQSPSLLSASVGDRVTLNCKGSQNIYKSLAWFRLKRGEAPKLLIYDANSLQTGIPSRFSGSGSGTDFTLTITSLQPEDVATYFCQQYYSGYTFGAGTKLELK | – | – | – | – | – | – | – | – | – | no binding (tested: 5 ug/ml) | 0.29 µg/mL
